These results are taken from patent US20140187743A1, “SURFACE-ACTIVE COLLAGEN MEMBRANE BY PEPTIDE” (priority 2011, published 2014).

Where “and” joins values, the source holds several entries; their conditions need not be identical. Identical values can stand only once. Where no end group is shown, it is not given here. The star is where a group is joined. FITC = O=C1OC2(c3ccc(O)cc3Oc3cc(O)ccc32)c2ccc(NC(=S)*)cc21

One data set concerns E. coli. Put plainly: Antibacterial test by agar diffusion method, inhibition diameter of peptide-bound collagen membrane. It counts as cell-based. The following applies: for Antibacterial activity (inhibition diameter) of peptide-bound collagen membrane: incubated for 3 days on E. coli plate. On the procedure: In another example of the present invention, in order to examine the antibacterial activity of an antibacterial fusion peptide that binds specifically to collagen, a collagen membrane was prepared using each of the peptides of SEQ ID NO: 1, the peptide of SEQ ID NO: 26 and the peptide of SEQ ID NO: 29 in the same manner as described in Example 2. The prepared collagen membrane was washed in PBS for 1 hour and dried in air. To evaluate the antibacterial activity of the peptide, an antibacterial test was performed according to an agar diffusion method. Specifically, E. coli cells were cultured in TSB medium until the absorbance at 620 nm reached 1, and then the cells were harvested and used in the test. The harvested cells were diluted with PBS, and 10^5-10^7 bacterial cells per ml were plated on a TSA plate and incubated at 37° C for 24 hours. On the plate having the incubated bacterial cells thereon, a collagen membrane having each of the peptides of SEQ ID NOS: 1, 26 and 29 bound thereto was placed and incubated for 3 days. Then, the inhibition diameter against the growth of the bacterial cells was measured. […] Using each of the peptides of SEQ ID NOS: 1, 26 and 29, collagen membranes were prepared in the same manner as described in Example 2. Each of the prepared collagen membranes was allowed to stand in 10 ml of PBS for 1 hour and dried in air. To evaluate the antibacterial activity of the peptides, an antibacterial test was performed according to the agar diffusion method. Specifically, E. coli cells were cultured in TSB (tryptic soy broth) medium until the absorbance at 620 nm reached 1, and then the cells were harvested and used in the test. The harvested cells were diluted with PBS, and 10^5-10^7 bacterial cells per ml were plated on a TSA plate and incubated at 37° C. for 24 hours. On the plate having the incubated bacterial cells thereon, a collagen membrane having each of the peptides of SEQ ID NOS: 1, 26 and 29 bound thereto was placed and incubated for 3 days, and then the inhibition diameter against the bacterial cells was inhibited was measured.

The conditions of data set [1]: rabbit, in vivo. The source says: In still another example of the present invention, in order to examine the in vivo stability of the fusion peptide that binds to collagen and has the ability to regenerate bone tissue, the peptide of SEQ ID NO: 24 labeled with FITC was bound to the collagen membrane which was then transplanted into a rabbit skull defect. […] Before and at days 1, 3, 7, 14, 21 and 28 after the membrane bound to the peptide of SEQ ID NO: 24 labeled with FITC was transplanted into the rabbit skull defect, the blood was collected and whether the peptide was released into the systemic blood was measured using a fluorometer. […] The peptide of SEQ ID NO: 24 labeled with FITC was bound to a collagen membrane in the same manner as described in Example 2. The collagen membrane was transplanted into the skull defect of a rabbit, and after 4 weeks, the membrane transplanted into the skull defect was observed by confocal microscopy (Olympus, Japan). Before and at days 1, 3, 7, 14, 21 and 28 after 10 mg of the peptide of SEQ ID NO: 24 labeled with FITC was transplanted into the rabbit skull defect, the blood was collected and whether the peptide was released into the systemic blood was measured using a fluorometer.

The next data set has as its system collagen membrane. Put plainly: Peptide release (elution) test from collagen membrane in PBS, HPLC. It counts as binding, porcine. The conditions noted are these: for Release of the peptide from collagen membrane: eluate in PBS at 37° C. Here is the method:
In still another example of the present invention, in order to examine the collagen-binding ability of the fusion peptide that binds specifically to collagen, porcine sink-derived collagen was dissolved in 0.1M HCl at a concentration of 1%(w/v), the pH was neutralized, and the collagen solution was concentrated to 4% by evaporating the solvent. To prepare a membrane, the concentrated collagen solution was poured into a […] diameter dish and mixed, and to prepare a three-dimensional scaffold, the collagen solution was poured onto a 24-well plate for cell culture and mixed. Next, 1% glutaraldehyde or 1% glyceraldehyde was added to crosslink the collagen solution, which was then washed with distilled water and freeze-dried. The resulting membrane having a size of 1×1 cm and a thickness of 250 μm was wet with 10 mg of the fusion peptide of SEQ ID NO: 24 in 100 μl of DW, washed with PBS and freeze-dried. The collagen membrane having the peptide bound thereto was added to PBS and subjected to a peptide release teat at 37° C. After 7 days, 10 ml of the elution solvent added was completely removed, after which 10 ml of a fresh elution solvent was added to the collagen membrane which was then eluted at 37° C. for 4 weeks. After completion of the elution, the membrane was collected and the peptide content thereof was measured.
1 g of porcine skin-derived collagen was dissolved in 100 ml of 0.1M HCl at a concentration of 1%(w/v), and then the pH of the collagen solution was neutralized, and the solvent was evaporated to the collagen solution to 4%.
In order to prepare a membrane, 8 ml of the concentrated collagen solution was poured in a […]-diameter dish and mixed, and in order to prepare a three-dimensional scaffold, 1 ml of the collagen solution was poured in a 24-well plate for cell culture and mixed. Then, 1% glutaraldehyde or 1% glyceraldehydes was added to crosslink the collagen solution, and the crosslinked collagen was washed with distilled water and freeze-dried (see FIG. 1).
0.038 g of the prepared membrane having a size of 1×1 cm and a thickness of 250 μm fall was wet with 10 mg of the fusion peptide of SEQ ID NO: 24 in 100 μl of deionized water (DW), allowed to stand at 4° C. for 8 hours, washed with PBS, and freeze-dried. The collagen membrane having the peptide bound thereto was added to 10 ml of PBS and subjected to a peptide release test at 37° C.
After 7 days, 10 ml of the elution solvent added was completely removed, and then 10 ml of a fresh elution solvent was added to the collagen membrane which was then eluted at 37° C. for 4 weeks. After completion of the elution, the membrane was collected and the peptide content thereof was measured.
0.038 g of the membrane having the peptide bound thereto was precisely weighed, and 5 ml of mobile phase solvent A was added thereto, followed by sonication for 1 hour. Next, 5 ml of mobile phase solvent B was added to and mixed with the membrane solution, and then the mixture was centrifuged at 4500 rpm for 30 minutes. 1 ml of the supernatant was taken and filtered through a 0.22 millipore filter to obtain a sample solution.
A peptide standard was dried in a desiccator (silica gel) for 5 hours, and about 10 mg of the dried peptide was dissolved in mobile phase solvent A. 10 ml of the solution was used as a standard solution. […]

Data set [2] concerns circular skull defect of rabbits. Put plainly: In vivo bone regeneration of peptide-bound collagen membrane in circular skull defect. More on the design: species or system New Zealand white rabbits. The following applies: 8 mm circular skull defect, 4 weeks after transplantation; compared to membranes with SEQ ID NO: 1 or 9. The source says: In still another example of the present invention, in order to examine the in vivo bone regeneration ability of the fusion peptide that binds to the collagen membrane and has the ability to regenerate bone tissue, each of the peptides of SEQ ID NOS: 1, 9 and 24 was bound to the collagen membrane, and then transplanted into the circular skull defect of rabbits, and the bone regeneration ability was examined. Specifically, a circular bone defect having a diameter of 8 mm was formed in the skull of anesthetized rabbits and covered with the collagen membrane, and the periosteum and the skin were doubly sutured. At 4 weeks after the transplantation, the animal was sacrificed, and the collected sample was fixed in a formalin solution. The tissue was embedded to prepare a sample having a thickness of 20 μm. The sample was stained with fuchsin and toluidine blue to prepare a nondemineralized sample. […] Each of the peptides of SEQ ID NOS: 1, 9 and 24, prepared in Example 1, was bound to a collagen membrane according to the method of Example 2, and then transplanted into the circular skull defect of rabbits, and the bone regeneration ability was examined. […]

Data set [3] addresses collagen membrane prepared from porcine skin-derived collagen (porcine). Put plainly: HPLC of peptide extracted from the membrane after 4 weeks of elution in PBS at 37 C.
For data set [4] the target is unchanged. Put plainly: release test in PBS at 37 C, HPLC of the eluate.
The mark [5] stands for this setting: after washing in PBS for 1 hour.

collagen membrane prepared from porcine skin-derived collagen (porcine), sequence (P12675 whole entry): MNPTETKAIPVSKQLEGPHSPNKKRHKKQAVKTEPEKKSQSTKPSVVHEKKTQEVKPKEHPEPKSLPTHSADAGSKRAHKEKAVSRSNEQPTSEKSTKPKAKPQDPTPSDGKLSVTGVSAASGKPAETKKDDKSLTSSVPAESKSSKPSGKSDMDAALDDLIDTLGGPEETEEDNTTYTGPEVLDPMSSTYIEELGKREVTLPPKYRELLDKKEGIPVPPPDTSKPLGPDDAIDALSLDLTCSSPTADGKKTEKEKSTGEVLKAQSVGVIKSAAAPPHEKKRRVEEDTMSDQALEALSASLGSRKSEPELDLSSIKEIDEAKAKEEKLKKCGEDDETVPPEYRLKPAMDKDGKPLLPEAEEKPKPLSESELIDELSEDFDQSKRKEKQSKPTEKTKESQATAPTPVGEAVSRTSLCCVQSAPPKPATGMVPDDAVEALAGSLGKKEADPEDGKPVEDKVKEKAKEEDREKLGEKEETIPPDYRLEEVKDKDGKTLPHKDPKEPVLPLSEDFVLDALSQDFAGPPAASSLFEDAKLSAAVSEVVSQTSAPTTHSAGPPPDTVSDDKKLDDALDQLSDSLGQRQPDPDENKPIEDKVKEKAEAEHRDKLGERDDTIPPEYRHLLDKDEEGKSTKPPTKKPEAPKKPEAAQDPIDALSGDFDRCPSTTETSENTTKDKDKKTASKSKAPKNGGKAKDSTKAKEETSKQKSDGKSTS

As for “GLRSKSKKFRRPDIQYPDA (Collagen Binding Peptide) [SEQ ID NO: 1]”, the “Antibacterial activity (inhibition diameter) of peptide-bound collagen membrane” value in the data set on E. coli (setting [5]) and with E. coli (before washing) was “no antibacterial activity” each time.

For the molecule “GKCSTRGRKCCRRKK (hBD3-3) [SEQ ID NO: 26, antibacterial peptide derived from human beta-defensin-3]”, the “Decrease of antibacterial activity after washing” value with E. coli (after washing in PBS for 1 hour versus before washing) is “about 50%”. Besides, the “Antibacterial activity (inhibition diameter) of peptide-bound collagen membrane” value in the data set with E. coli (before washing) is “highest antibacterial activity”.

As for “SEQ ID NO: 24 labeled with FITC: FITC (fluorescein isothiocyanate) bound to the N-terminus of the peptide of SEQ ID NO: 24 ({FITC}-GLRSKSKKFRRPDIQYPDARHPLYVDFSDVGWNDWIVA)”, the “Spread of the peptide to the surrounding tissue (confocal microscopy)” value in data set [1] is recorded as “did not spread to the surrounding tissue”.

For “GLRSKSKKFRRPDIQYPDAGKCSTRGRKCCRRKK (Collagen Binding Peptide; hBD3-3) [SEQ ID NO: 29]”, in the data set with E. coli (setting [5]), the “Antibacterial activity (inhibition diameter) of peptide-bound collagen membrane” value is “maintained its antibacterial activity”.

“GLRSKSKKFRRPDIQYPDARHPLYVDFSDVGWNDWIVA (Collagen Binding Peptide) [SEQ ID NO: 24]”: the “Peak of the peptide in the eluate” value in the data set on collagen membrane (4 week elution test, retention time of 13 minutes, Lot Nos. 1, 2 and 3) is recorded as “not observed”. Further, in the data set with collagen membrane (after completion of the 4 week elution at 37° C., Lot Nos. 1-3, 10 mg peptide loaded), the “Content of the peptide remaining on collagen membrane” value was 9.2 mg and 9.43 mg and 9.68 mg and 9.20 mg. Also, the “Release of the peptide from collagen membrane” value came out at 0 mg in the data set with collagen membrane (day 7, Lot Nos. 1-3, 10 mg peptide loaded); 0 mg in the data set on collagen membrane (day 14, Lot Nos. 1-3, 10 mg peptide loaded); 0 mg in the data set on collagen membrane (day 28, Lot Nos. 1-3, 10 mg peptide loaded). Also, the “Bone regeneration ability of the collagen membrane having the peptide bound” value in data set [2] is “increased”.

For GLRSKSKKFRRPDIQYPDARHPLYVDFSDVGWNDWIVA, the content of the peptide remaining on collagen membrane (of 10 mg applied) in data set [3] was 9.2 mg and 9.43 mg and 9.68 mg. In data set [4], the peptide released from collagen membrane is 0 mg.
